This series in a line: P. pastoris expression level by SDS-PAGE. To be noted: densitometry of SDS-PAGE gels. On the procedure: After DH5a clones were confirmed for the presence of correct catalytic domain mutation by sequence analysis, the purified plasmid was digested with SacI High-Fidelity restriction enzyme prior to electroporation into P. pastoris strain GS115. The resulting transformants were grown on MD plates (1.34% yeast nitrogen base, 0.000004% biotin, 2% dextrose and 1% agar). For expression studies, clones were grown in BMGY media (1% yeast extract, 2% peptone, 1.34% yeast nitrogen base, 0.000004% biotin, 1% glycerol, 100 mM phosphate buffer, pH 6) at 30° C. in 500 ml shake flasks covered with four layers of cheese cloth for enhanced oxygen flow to the yeast. […] The purity of lysostaphin was determined using SDS-PAGE. The protein concentration was quantified using ND-1000 Spectrophotometer (NanoDrop Technologies; Wilmington, Del.). To ensure accuracy, protein absorbance measure was adjusted using the absorbance adjustment factor of 0.4 for both wild-type lysostaphin and its variants. Briefly, the adjustment factor was calculated as the inverse of the reported Abs 0.1% (=1 g/L) value (ProtParam, ExPASy).
The amount of protein used in each assay was estimated from SDS-PAGE gels. […] The gel was stained using GELCODE Blue Stain Reagent from Thermo Fisher Scientific (Carlsbad, Calif.) and bands quantified using Quantity Tools from Image Lab 5.1 software (Bio-Rad Laboratories; Hercules, Calif.). […]

From patent publication US11091749B2, “Deimmunized lysostaphin and methods of use” (TRUSTEES OF DARTMOUTH COLLEGE, priority 2014, dated 2021) come the findings set out here.

In the case of “Wild-Type: wild-type lysostaphin (SEQ ID NO:49) produced in P. pastoris; aglycosylated Ser126Pro backbone in the design studies [reference compound]”, the “Expression Level (% WT)” value came out at 100 % WT.
